First the molecules themselves.
B1: TMEM175 (parent)
chain: ALLHQAETLQPSVWFGGREHVLMF
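Note: lentivirally expressed fusions sorted by FACS into six bins by GFP to DsRed ratio, PSI derived from sequencing read proportions per bin multiplied by bin number.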

In this data set the parent is B1. Description: protein stability index of a GFP-peptide fusion (GPS, HEK-293T) (PSI 1-6); higher = more stable. The settings on record: c terminus: a fixed tail appended.
As to ALLHPAETLQPSVWFGGREHVLMF [Q5P], the protein stability index amounted to 2.78. The same measure for ALLHVAETLQPSVWFGGREHVLMF [Q5V]: 3.06; for ALLHFAETLQPSVWFGGREHVLMF [Q5F]: 1.43. As to ALLHEAETLQPSVWFGGREHVLMF [Q5E], the protein stability index was determined as 1.07. As to ALLHDAETLQPSVWFGGREHVLMF [Q5D], the protein stability index was determined as 2.03.

Turning to ALLHTAETLQPSVWFGGREHVLMF [Q5T], the protein stability index was 2.94. In the case of ALLHMAETLQPSVWFGGREHVLMF [Q5M] it was 3.42; in that of ALLHRAETLQPSVWFGGREHVLMF [Q5R], 2.33. Take ALLHCAETLQPSVWFGGREHVLMF [Q5C]: the protein stability index is 1.99. Regarding ALLHLAETLQPSVWFGGREHVLMF [Q5L], the protein stability index amounted to 3.8.

As to ALLHHAETLQPSVWFGGREHVLMF [Q5H], the protein stability index was 2.37. Regarding ALLPQAETLQPSVWFGGREHVLMF [H4P], the protein stability index turned out to be 1.41.

For the variant ALLFQAETLQPSVWFGGREHVLMF [H4F], the protein stability index came to 3.14.

Consider ALLDQAETLQPSVWFGGREHVLMF [H4D], for which the protein stability index turned out to be 1.89. In the case of ALLQQAETLQPSVWFGGREHVLMF [H4Q] it was 1.73. As to ALLNQAETLQPSVWFGGREHVLMF [H4N], the protein stability index was 2.84. The same measure for ALLKQAETLQPSVWFGGREHVLMF [H4K]: 1.52; for ALLCQAETLQPSVWFGGREHVLMF [H4C]: 3.01. The same measure for ALLYQAETLQPSVWFGGREHVLMF [H4Y]: 2.17; for ALLHQAETLQPSVWFYGREHVLMF [G16Y]: 3.05; for ALLHQAETLQPSVWFLGREHVLMF [G16L]: 2.28. In the case of ALLHQAETLQPSVWFHGREHVLMF [G16H] it was 2.1. ALLHQAETLQPSVWFSGREHVLMF [G16S]: the protein stability index was 2.06. As for ALLHQAETLQPSVWFPGREHVLMF [G16P], the protein stability index amounted to 1.14. With ALLHQAETLQPSVWFTGREHVLMF [G16T], the protein stability index was 1.47. With ALLHQAETLQPSVWFDGREHVLMF [G16D], the protein stability index was found to be 2.04. In the case of ALLHQAETLQPSVWFGGREHVQMF [L22Q], the protein stability index is 1.9. The same measure for ALLHQAETLQPSVWFGGREHVSMF [L22S]: 2.06; for ALLHQAETLQPSVWFGGREHVTMF [L22T]: 1.78.

In the case of ALLHQAETLQPSVWFGGREHVCMF [L22C], the protein stability index amounted to 3.13. In the case of ALLHQAETLQPSVWFGGREHVNMF [L22N] it was 2.19; in that of ALLHQAETLQPSVWFGGREHVMMF [L22M], 2.03. The same measure for ALLHQAETLQPSVWFGGREHVFMF [L22F]: 2.44; for ALLHQAETLQPSVWFGGREHVHMF [L22H]: 2.68; for ALLHQAFTLQPSVWFGGREHVLMF [E7F]: 2.64.

For ALLHQADTLQPSVWFGGREHVLMF [E7D], the protein stability index was 1. Consider ALLHQAMTLQPSVWFGGREHVLMF [E7M], for which the protein stability index stood at 3.19.

Take ALLHQAQTLQPSVWFGGREHVLMF [E7Q]: the protein stability index was determined as 2.71. Turning to ALLHQAHTLQPSVWFGGREHVLMF [E7H], the protein stability index was determined as 3. The same measure for ALLHQAPTLQPSVWFGGREHVLMF [E7P]: 1.96; for ALLHQAYTLQPSVWFGGREHVLMF [E7Y]: 1.78; for ALLHQANTLQPSVWFGGREHVLMF [E7N]: 1.88. In the case of ALLHQAELLQPSVWFGGREHVLMF [T8L] it was 4.17. The same measure for ALLHQAEELQPSVWFGGREHVLMF [T8E]: 2.03; for ALLHQAEYLQPSVWFGGREHVLMF [T8Y]: 2.91; for ALLHQAECLQPSVWFGGREHVLMF [T8C]: 2.94.

Take ALLHQAEFLQPSVWFGGREHVLMF [T8F]: the protein stability index was found to be 3.68. On to ALLHQAEVLQPSVWFGGREHVLMF [T8V], for which the protein stability index worked out at 1.01. The same measure for ALLHQAEWLQPSVWFGGREHVLMF [T8W]: 1.69. In the case of ALLHQAERLQPSVWFGGREHVLMF [T8R] it was 1.26; in that of ALLHQAETWQPSVWFGGREHVLMF [L9W], 1.7. The same measure for ALLHQAETPQPSVWFGGREHVLMF [L9P]: 2.11; for ALLHQAETAQPSVWFGGREHVLMF [L9A]: 2.42; for ALLHQAETFQPSVWFGGREHVLMF [L9F]: 2.49.

Consider ALLHQAETQQPSVWFGGREHVLMF [L9Q], for which the protein stability index amounted to 3.27.

For ALLHQAETSQPSVWFGGREHVLMF [L9S], the protein stability index worked out at 1.36. In the case of ALLHQDETLQPSVWFGGREHVLMF [A6D] it was 2.55. In the case of ALLHQPETLQPSVWFGGREHVLMF [A6P] it was 2.43; in that of ALLHQFETLQPSVWFGGREHVLMF [A6F], 3.21. In the case of ALLHQHETLQPSVWFGGREHVLMF [A6H] it was 2.17; in that of ALLHQKETLQPSVWFGGREHVLMF [A6K], 1.68; in that of ALLHQSETLQPSVWFGGREHVLMF [A6S], 1.68. Turning to ALLHQQETLQPSVWFGGREHVLMF [A6Q], the protein stability index came to 1.87. The same measure for ALLHQAETLQPSVWFGGREHVLNF [M23N]: 1.58; for ALLHQAETLQPSVWFGGREHVLFF [M23F]: 1.67.

Regarding ALLHQAETLQPSVWFGGREHVLPF [M23P], the protein stability index worked out at 1.35.

Regarding ALLHQAETLQPSVWFGGREHVLKF [M23K], the protein stability index was 1.74. The same measure for ALLHQAETLQPSVWFGGREHVLEF [M23E]: 3.67; for ALLHQAETLQPSVWFGGREHVLQF [M23Q]: 1.84; for ALLHQAETLQPSVWFGGREHVLAF [M23A]: 1.2. In the case of ALLHQAETLQPSVWFGGREHVLIF [M23I] it was 2.59; in that of ALLHQAETLQPSVWFGRREHVLMF [G17R], 3.53; in that of ALLHQAETLQPSVWFGQREHVLMF [G17Q], 1.4. The same measure for ALLHQAETLQPSVWFGWREHVLMF [G17W]: 1.67; for ALLHQAETLQPSVWFGNREHVLMF [G17N]: 2.51; for ALLHQAETLQPSVWFGDREHVLMF [G17D]: 1.27. Regarding ALLHQAETLQPSVWFGHREHVLMF [G17H], the protein stability index is 2.45. The same measure for ALLHQAETLQPSVWFGTREHVLMF [G17T]: 2.68; for ALLHQAETLQPSVWFGKREHVLMF [G17K]: 1.66.

Consider ALLHQAETLQPSVWFGVREHVLMF [G17V], for which the protein stability index is 2.62.

Take ADLHQAETLQPSVWFGGREHVLMF [L2D]: the protein stability index was 2.01.

For ACLHQAETLQPSVWFGGREHVLMF [L2C], the protein stability index stood at 3.82. The same measure for AELHQAETLQPSVWFGGREHVLMF [L2E]: 1.93; for ATLHQAETLQPSVWFGGREHVLMF [L2T]: 1.53.

With APLHQAETLQPSVWFGGREHVLMF [L2P], the protein stability index worked out at 1.87. In the case of AALHQAETLQPSVWFGGREHVLMF [L2A] it was 2.96. The same measure for AMLHQAETLQPSVWFGGREHVLMF [L2M]: 1.93; for AQLHQAETLQPSVWFGGREHVLMF [L2Q]: 1.42; for ALLHQAETLQPSVWFGGRCHVLMF [E19C]: 3.88. The same measure for ALLHQAETLQPSVWFGGRPHVLMF [E19P]: 2.37; for ALLHQAETLQPSVWFGGRHHVLMF [E19H]: 2.74; for ALLHQAETLQPSVWFGGRSHVLMF [E19S]: 2.2. ALLHQAETLQPSVWFGGRAHVLMF [E19A]: the protein stability index was found to be 2.27. For the variant ALLHQAETLQPSVWFGGRFHVLMF [E19F], the protein stability index was found to be 1.97.

Source of the values: the supplement of paper PMC10567573.
